In PMC4107485:

Key:
Assay in all cases: EMSA
[1] = test system: T1, BaeR (Erwinia amylovora Ea1189), ORF:3df56c72
T1 sequence: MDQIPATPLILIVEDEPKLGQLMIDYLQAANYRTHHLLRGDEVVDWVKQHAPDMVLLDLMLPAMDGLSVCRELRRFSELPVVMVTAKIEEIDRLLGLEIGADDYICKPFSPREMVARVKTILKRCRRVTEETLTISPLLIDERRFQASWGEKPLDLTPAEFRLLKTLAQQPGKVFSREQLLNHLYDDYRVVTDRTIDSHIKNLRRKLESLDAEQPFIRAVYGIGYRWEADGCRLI

[2] = target: T2, CpxR (Erwinia amylovora Ea1189) (UniProt A0ABX7MGR0)
T2 sequence: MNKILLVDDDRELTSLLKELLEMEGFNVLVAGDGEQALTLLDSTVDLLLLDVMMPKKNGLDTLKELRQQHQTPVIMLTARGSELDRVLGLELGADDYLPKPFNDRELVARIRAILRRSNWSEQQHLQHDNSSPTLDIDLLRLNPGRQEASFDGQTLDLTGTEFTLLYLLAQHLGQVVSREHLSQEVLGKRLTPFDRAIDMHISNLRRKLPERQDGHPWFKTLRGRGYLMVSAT

[3] = test system: BaeR, acetyl phosphate treated (Erwinia amylovora Ea1189)

Substance	binding [1]	binding [2]	binding signal (fold binding vs unphosphorylated BaeR) [3]
TCTACGGTCACGGTTAAGAAACCGCGTCGTCTTTTGCGCCGTCAGCTGCAGATCACCACGCGTATGCGTGGTTTTTTTGGCGCTATTTCATGGCGATAACATATATTAAATCTCGCATTTCTTACGGAATTCTTACGCTGCCAGCATGGAACGCCAGCAGATAAGCTAAGATAATATGCTTAACTACCCACCACCTTTGGACGGGTAAGGGGCTAAAGCCATGCCCTTTACGCCGGGTTTTTGCGCGCCGGGGATTATCCTGTCGGGTGTTGTTTA (double strand) [mdtUVW upstream region]	no binding	no binding	–
TGATTCTCCTGATTGATAAGTGGATAACGCAGCTGATAAGACTGGCAAACAGCGTTGCATGCGCTGCGTTGATTTGTAGCATACCATTTGCCAATACTAAATTTTCTCACCGTAGCAGCTCTTATTTAAGCCGTTATCCTTATTTCCTTCATTTTTCAGCGCCTGAAATTCGCTATCCTTGCCAGCCTGGGGGCAAGCCCTAATCCCGCCCCGCGCCCTGCTTTAATTTCACGGAGAGTAGCACCCAGGATGAAAACACCCCGACGTTTCCCCCTTATCGCCTTGACGGT (double strand) [mdtABC upstream region]	binds	no binding	–
mdtABC upstream region	–	–	2
